Measurements: patent US20070086956A1, “Method for accelerating the rate of mucociliary clearance” (BAYER AKTIENGESELLSCHAFT, priority 1998, published 2007)

Assays:
[1] = tested on: ovine tracheal epithelial cells; assay: Short circuit current (Isc) in cultured ovine tracheal epithelial (OTE) cells; assay type: cell-based; settings: 100 ug/mL; over a 90 minute period; FIG. 24
Experimental: The aim of this study was to investigate the effect of Bikunin (1-170) (See Example 17), on Isc in OTE cells in vitro. OTE cells were seeded onto 1.2 cm diameter, 0.4 um pore size Snapwell™ inserts (Costar UK). Cells were grown to confluence and mounted in modified Ussing chambers 3-5 days after placement on air-liquid interface. Inserts were immersed in Krebs buffer (KBR) solution and bubbled with 95% O2/5% CO2 warmed to 37° C.
After a 20 minute equilibration period, transepithelial potential difference was then clamped to 0 mV using a WPI EVC 4000 voltage clamp. Ag/AgCl electrodes were used to monitor Isc. Once a stable baseline was achieved (typically 30 mins), cells were treated with amiloride (10 uM). Once a response to amiloride was obtained, it was washed out with KBR solution. After return to baseline, Bikunin (1-170) described in Example 17 (25, 50 or 100 ug/mL) or PBS was added. 90 minutes following agent treatment amiloride (10 uM) was again added.

guinea pig trachea = assay: Tracheal potential difference in guinea pigs pretreated with LPS; assay type: in vivo; settings: 50 ug/mL topical instillation; guinea pigs pre-exposed to LPS; FIG. 25(b)
Experimental: Polymorphonuclear (PMN) leukocyte (neutrophil) dominated airway inflammation is often a feature of CF lung disease. In the guinea pig, exposure to an aerosol of E. coli lipopolysaccharide (LPS) induces a marked PMN influx in the bronchoalveolar Iavage fluid 24 hours post challenge. The aim of this study was to investigate the effect of Bikunin (1-170) described in Example 17 on tracheal potential difference in guinea pigs pre-exposed to an aerosol of LPS. Agents were delivered into the cephalad trachea by topical instillation. TPD was monitored for 60 minutes, 23 hours after exposure to LPS.
Bikunin (1-170) was formulated in Hank's Balanced salt solution (HBSS). Amiloride was obtained from Sigma Chemicals and formulated in HBSS. Vehicle control was HBSS. Hypnorm (Fentanyl citrate 0.315 mg/mL and Fluanisone 10 mg/mL) was obtained from Janssen Animal Health and Hypnovel (Midazolam 5 mg.mL) was obtained from Roche. […]
23.4 hours following LPS treatment, guinea pigs were anaesthetised with Hypnorm and Hypnovel and immobilised in a supine position. […] Rectal temperature was monitored with a thermistor probe.
20 minutes following induction of anaesthesia, Bikunin (50 ug/mL) or amiloride (100 uM) was topically instilled into the cephalad trachea. The tracheal agar electrode was then inserted into the cephalad trachea and tracheal potential difference was measured for 60 minutes. […]

sheep airways = assay: Tracheal mucus velocity in the sheep; assay type: in vivo
Experimental: The aim of this study was to investigate the effect of the Kunitz family serine protease inhibitor Bikunin (1-170) described in Example 17 on sheep trachcal mucus velocity over 8 hours after treatment. This agent was delivered by nebulised aerosol administration to the airways. The procedure used in this example is described in O'Riordan et al., J. Applied Physiol. 85(3), 1086-1091, 1998.
Adult ewes were restrained in an upright position, with their heads immobilized, in a specialized body harness. They were nasally intubated with an endotracheal tube, with the cuff placed just below the vocal cords. The inspired air was warmed and humidified. To minimize possible impairment of TMV caused by inflated cuffs, the endotracheal tube cuff remained deflated throughout the study except for the period of aerosol administration.
To measure TMV 5 to 10 radiopaque Teflon particles (approximately 1 mm in diameter, 0.8 mm thick, and weighing 1.5 to 2 mg) were insufflated into the trachea via a catheter placed within the endotracheal tube. The movement of the Teflon particles was then measured over a 1 minute period. The procedure used in this example is described in Russi et al., J. Applied Physiol. 59(5), 1416-1422, 1985. A collar containing radiopaque markers of known length was applied to the exterior of the animals and used as a standard to convert distance traversed by the particles on the video screen to actual distance traveled. TMV was calculated from the average distance in a cephalad direction traveled per minute for 5 to 10 Teflon particles. Baseline TMV was measured immediately prior to administration of aerosol.
Test substances; PBS, 1 mg/mL Bikunin in PBS, or 3 mg/mL Bikunin in PBS; were delivered to the sheep airways as an aerosol (3 mL) generated using a Raindrop jet nebuliser operated at a flow rate that produced droplets of mass median aerodynamic diameter of 3.6 um. […]

B1: CHO Bikunin (1-170): Glycosylated placental bikunin (1-170), SEQ ID NO: 52, expressed in Chinese hamster ovary cells (Example 17) (protein, listed as Homo sapiens)
chain: ADRERSIHDFCLVSKVVGRCRASMPRWWYNVTDGSCQLFVYGGCDGNSNNYLTKEECLKKCATVTENATGDLATSRNAADSSVPSAPRRQDSEDHSSDMFNYEEYCTANAVTGPCRASFPRWYFDVERNSCNNFIYGGCRGNKNSYRSEEACMLRCFRQQENPPLPLGSK
modifications: glycosylated, CHO-expressed
B1 was tested, and the sodium current [1] was “significantly inhibited sodium current”, the tracheal potential difference (guinea pig trachea) was “significantly inhibited potential difference” and the TMV (sheep airways; 3 mg aerosol (3 mL of 1 mg/mL), any time point versus vehicle) was “no significant differences”. The TMV (sheep airways; 9 mg aerosol (3 mL of 3 mg/mL), at 0, 0.5, 3, 4, 5, 6, 7, and 8 hours versus PBS vehicle, FIG. 22) was “significantly increased TMV” and the TMV (sheep airways; 9 mg aerosol, at 24 hours) was “returned to baseline rates”.
